Tests used:
Assay in all cases: cell-based or functional assay
[1] = target: SARS-CoV-2 B.1.617.1突变株S蛋白 (假病毒) (SARS-CoV-2, UniProt P0DTC2 14-1273)
[2] = target: SARS-CoV-2 B.1.617.2突变株S蛋白 (假病毒) (SARS-CoV-2, UniProt P0DTC2 14-1273)
[3] = target: SARS-CoV-2 B.1.351突变株S蛋白 (假病毒) (SARS-CoV-2, UniProt P0DTC2 14-1273)

Row | Binder | 假病毒中和 IC50 [1] | 假病毒中和 IC50 [2] | 假病毒中和 IC50 [3]
1 | 单抗8D3 (antibody, V domains shown) VH: EVQLQQSGPELVKPGASVKISCKTSGYTFTEYTMYWVKQSHGKSLEWIGGINPNIGDTSYNQNFKGKATLTVDRSSSTAYMELRSLTSEDSAVYYCARDGYPYYYALDHWGQGTSVTVSS VL: DIVMTQSQKFMSTSVGDRVSVTCKASQNVGTNVAWYQQKPGQSPKALIYSTSYRYSGVPDRFTGSGSGTDFTLTISNVQSEDLAEYFCQQYNSYPYTFGGGTKLEIKR | 2 ng/mL | 8 ng/mL | 6 ng/mL
2 | 单抗2G3 (antibody) heavy: QVQLQQPGAELVKPGASVKMSCKASGYTFTTYTIHWLRQTPGQGLEWIGAIYPGIGDTSYNQSFKGKATLTADKSSSTAYMQLSSLTSEDSAVYYCARDGNYAPFTYWGQGTLVTVSAAKTTPPSVYPLAPGSAAQTNSMVTLGCLVKGYFPEPVTVTWNSGSLSSGVHTFPAVLQSDLYTLSSSVTVPSSTWPSETVTCNVAHPASSTKVDKKIVPRDCGCKPCICTVPEVSSVFIFPPKPKDVLTITLTPKVTCVVVDISKDDPEVQFSWFVDDVEVHTAQTQPREEQFNSTFRSVSELPIMHQDWLNGKEFKCRVNSAAFPAPIEKTISKTKGRPKAPQVYTIPPPKEQMAKDKVSLTCMITDFFPEDITVEWQWNGQPAENYKNTQPIMDTDGSYFVYSKLNVQKSNWEAGNTFTCSVLHEGLHNHHTEKSLSHSPGK light: DIVMSQSPSSLAVSVGEKVTMSCKSSQSLLYSNNQKNYLAWYQQKPGQSPKLLIYWTSTRESGVPDRFTGSGSGTDFTLTINSVKAEDLAVYYCQQYYRYPLTVGAGTKLELKRADAAPTVSIFPPSSEQLTSGGASVVCFLNNFYPKDINVKWKIDGSERQNGVLNSWTDQDSKDSTYSMSSTLTLTKDEYERHNSYTCEATHKTSTSPIVKSFNRNEC | 1 ng/mL | 84 ng/mL | 4 ng/mL
